The values below come from patent publication US20150175710A1 (DEVELOPMENT CENTER FOR BIOTECHNOLOGY, published 2015).

Assay [1] concerns the target T1, human ENO1 protein (wild type) (human, UniProt P06733 1-434).
T1 construct: Coated on ELISA plates; also called alpha-Enolase; enolase-1; not shown: source of the protein in Exampl
Briefly: ELISA, ENO1 coated, EN10 mAb 2-fold serial dilution, four parameter logistic fit.

In assay [2] the target is T1, human ENO1 protein (wild type). Description: ELISA, 400 ng human ENO1 coated, antibody serial dilution, four parameter logistic fit. A general note: An ELISA detects its analyte on a solid surface through an enzyme-linked reagent.
Assay [3] has as its target T2, human ENO1 mutant D300 to alanine (human, UniProt P06733 1-434).
T2 construct: Expressed in E. coli; also called A300; not shown: His tag (Ni-agarose purified)
Briefly: ELISA, mutant ENO1 coated, EN10 mAb 2-fold serial dilution, four parameter logistic fit.

The target of assay [4] is T3, human ENO1 mutant E334 to alanine (human, UniProt P06733 1-434).
T3 construct: Expressed in E. coli; also called A334; not shown: His tag (Ni-agarose purified)
T3 sequence (P06733 other isoform, or with tags, fused parts or gaps mutant limits assumed): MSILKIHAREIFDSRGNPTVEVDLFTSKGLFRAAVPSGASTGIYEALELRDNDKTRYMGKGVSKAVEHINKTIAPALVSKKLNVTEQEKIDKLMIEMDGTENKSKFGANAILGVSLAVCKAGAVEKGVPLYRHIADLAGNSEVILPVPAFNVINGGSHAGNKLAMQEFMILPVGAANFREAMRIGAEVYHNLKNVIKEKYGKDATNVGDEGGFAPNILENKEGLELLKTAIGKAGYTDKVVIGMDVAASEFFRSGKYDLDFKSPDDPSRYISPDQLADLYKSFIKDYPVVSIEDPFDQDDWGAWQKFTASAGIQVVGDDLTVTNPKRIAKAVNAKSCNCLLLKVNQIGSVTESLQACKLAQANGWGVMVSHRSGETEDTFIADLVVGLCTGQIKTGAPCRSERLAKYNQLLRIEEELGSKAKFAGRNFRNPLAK
The description is as above.

In assay [5] the target is T4, human ENO1 mutant Q305 to alanine (human, UniProt P06733 1-434).
T4 construct: Expressed in E. coli; also called A305; not shown: His tag (Ni-agarose purified)
T4 sequence (P06733 other isoform, or with tags, fused parts or gaps mutant limits assumed): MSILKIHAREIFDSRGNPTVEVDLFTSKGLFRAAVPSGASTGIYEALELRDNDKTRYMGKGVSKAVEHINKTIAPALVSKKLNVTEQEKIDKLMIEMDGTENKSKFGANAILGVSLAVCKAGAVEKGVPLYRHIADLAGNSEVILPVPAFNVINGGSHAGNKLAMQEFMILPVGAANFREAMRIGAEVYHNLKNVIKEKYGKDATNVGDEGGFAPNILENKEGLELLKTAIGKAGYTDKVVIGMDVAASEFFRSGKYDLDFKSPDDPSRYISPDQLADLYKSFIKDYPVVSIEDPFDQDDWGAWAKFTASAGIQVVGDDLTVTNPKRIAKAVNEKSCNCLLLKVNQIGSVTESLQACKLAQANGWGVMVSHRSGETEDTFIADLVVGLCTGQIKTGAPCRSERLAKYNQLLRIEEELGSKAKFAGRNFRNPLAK
The assay is described as above.

The target in assay [6] is T5, human ENO1 mutant A309 to glycine (human, UniProt P06733 1-434).
T5 construct: Expressed in E. coli; not shown: His tag (Ni-agarose purified)
T5 sequence (P06733 other isoform, or with tags, fused parts or gaps mutant limits assumed): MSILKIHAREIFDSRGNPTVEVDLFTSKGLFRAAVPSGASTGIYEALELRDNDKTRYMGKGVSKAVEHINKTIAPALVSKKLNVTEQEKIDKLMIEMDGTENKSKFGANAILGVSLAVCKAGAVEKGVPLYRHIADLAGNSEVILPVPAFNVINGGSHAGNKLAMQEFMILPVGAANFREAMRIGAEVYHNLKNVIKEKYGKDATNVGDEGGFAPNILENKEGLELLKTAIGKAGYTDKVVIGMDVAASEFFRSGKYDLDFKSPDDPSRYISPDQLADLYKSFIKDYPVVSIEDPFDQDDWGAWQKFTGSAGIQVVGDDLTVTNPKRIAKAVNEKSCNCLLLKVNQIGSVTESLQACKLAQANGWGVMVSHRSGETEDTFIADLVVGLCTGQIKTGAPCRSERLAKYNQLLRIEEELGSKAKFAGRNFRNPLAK
The description is as above.

Assay [7] concerns the target T6, human ENO1 mutant N333 to alanine (human, UniProt P06733 1-434).
T6 construct: Expressed in E. coli; also called A333; not shown: His tag (Ni-agarose purified)
The description is as above.

For assay [8], the target named is T7, human ENO1 mutant G302 to alanine (human, UniProt P06733 1-434).
T7 construct: Expressed in E. coli; also called A302; not shown: His tag (Ni-agarose purified)
T7 sequence (P06733 other isoform, or with tags, fused parts or gaps mutant limits assumed): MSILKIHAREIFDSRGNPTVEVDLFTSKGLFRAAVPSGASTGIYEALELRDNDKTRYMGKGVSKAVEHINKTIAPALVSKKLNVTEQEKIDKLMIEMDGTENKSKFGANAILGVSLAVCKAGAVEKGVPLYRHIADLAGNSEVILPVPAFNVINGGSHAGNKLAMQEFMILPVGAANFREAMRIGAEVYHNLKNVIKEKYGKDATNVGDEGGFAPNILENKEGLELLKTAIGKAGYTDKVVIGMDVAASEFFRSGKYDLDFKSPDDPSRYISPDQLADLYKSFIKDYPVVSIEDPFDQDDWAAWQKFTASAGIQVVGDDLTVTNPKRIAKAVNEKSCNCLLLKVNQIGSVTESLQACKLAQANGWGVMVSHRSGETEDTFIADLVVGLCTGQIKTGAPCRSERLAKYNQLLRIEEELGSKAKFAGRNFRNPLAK
The description is as above.

In assay [9] the target is T8, human ENO1 mutant K326 to alanine (human, UniProt P06733 1-434).
T8 construct: Expressed in E. coli; also called A326; not shown: His tag (Ni-agarose purified)
T8 sequence (P06733 other isoform, or with tags, fused parts or gaps mutant limits assumed): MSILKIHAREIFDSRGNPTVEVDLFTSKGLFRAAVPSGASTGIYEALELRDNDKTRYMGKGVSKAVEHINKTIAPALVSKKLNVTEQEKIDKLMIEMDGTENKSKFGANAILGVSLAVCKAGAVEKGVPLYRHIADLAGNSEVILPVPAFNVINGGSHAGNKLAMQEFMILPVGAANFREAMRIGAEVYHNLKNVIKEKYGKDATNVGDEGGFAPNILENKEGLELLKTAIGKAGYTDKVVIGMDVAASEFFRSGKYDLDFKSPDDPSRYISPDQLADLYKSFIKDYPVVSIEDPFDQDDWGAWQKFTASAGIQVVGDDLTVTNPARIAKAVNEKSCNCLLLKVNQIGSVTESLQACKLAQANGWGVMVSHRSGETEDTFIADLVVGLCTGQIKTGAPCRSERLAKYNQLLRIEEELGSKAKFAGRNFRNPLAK
The description is as above.

Assay [10] addresses T9, human ENO1 mutant K306 to alanine (human, UniProt P06733 1-434).
T9 construct: Expressed in E. coli; also called A306; not shown: His tag (Ni-agarose purified)
Described as above.

Assay [11] addresses T10, human ENO1 mutant K335 to alanine (human, UniProt P06733 1-434).
T10 construct: Expressed in E. coli; also called A335; not shown: His tag (Ni-agarose purified)
Described as above.

T1 sequence (P06733 whole entry): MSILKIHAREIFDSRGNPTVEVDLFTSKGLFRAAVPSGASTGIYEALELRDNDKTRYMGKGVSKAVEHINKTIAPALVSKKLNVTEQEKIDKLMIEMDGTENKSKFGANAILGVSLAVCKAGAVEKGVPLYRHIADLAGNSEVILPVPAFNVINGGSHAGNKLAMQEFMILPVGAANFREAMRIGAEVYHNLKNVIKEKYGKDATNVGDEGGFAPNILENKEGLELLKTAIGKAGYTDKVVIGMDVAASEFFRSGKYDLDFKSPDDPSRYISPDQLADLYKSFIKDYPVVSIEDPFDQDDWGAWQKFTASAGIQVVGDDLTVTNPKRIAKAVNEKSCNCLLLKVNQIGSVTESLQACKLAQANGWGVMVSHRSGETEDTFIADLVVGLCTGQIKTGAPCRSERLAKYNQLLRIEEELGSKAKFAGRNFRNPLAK
T6 sequence (P06733 other isoform, or with tags, fused parts or gaps mutant limits assumed): as the sequence (P06733 whole entry) above, with N333A counted along it
T9 sequence (P06733 other isoform, or with tags, fused parts or gaps mutant limits assumed): as the sequence (P06733 whole entry) above, with K306A counted along it
T2 sequence (P06733 other isoform, or with tags, fused parts or gaps mutant limits assumed): as the sequence (P06733 whole entry) above, with D300A counted along it
T10 sequence (P06733 other isoform, or with tags, fused parts or gaps mutant limits assumed): as the sequence (P06733 whole entry) above, with K335A counted along it

B1: anti-human ENO1 antibody EN10 mAb (antibody, V domains shown)
VH: EVQLQQSGPELVKPGASVKMSCKASGYTFTSCVMNWVKQKPGQGLEWIGYINPYNDGTKYNEKFKGKATLTSDKSSSTAYMELSSLTSEDSAVYYCAREGFYYGNFDNWGQGTTLTVSS
VL: DIQMTQSPASLSASVGETVTITCRASENIYSYLTWYQQKQGKSPQLLVYNAKTLPEGVPSRFSGSGSGTQFSLKINSLQPEDFGSYYCQHHYGTPYTFGGGTKLEITR
A word on the Kd: it is the free concentration of one partner at which half of the binding sites on the other are occupied at equilibrium, for simple one-to-one binding. As to B1, the Kd came out at 0.443 nM in assay [1]; 0.203 nM in [2]; 63.3 nM in [3]; 107 nM in [4]; 0.331 nM in assay [5]; 5.63 nM in assay [6]. Further, the Kd in assay [7] came out at 0.413 nM; in assay [8], 0.345 nM; in assay [9], 0.787 nM; in assay [10], 0.465 nM; in [11] it was 9.57 nM.
